Assay results reported in US20200206371A1 (WAYNE STATE UNIVERSITY, published 2020).

T1: murine IFN-γ (recombinant IFN-γ) (mouse, UniProt P01580 23-155)
T1 construct: AN-18 is described as a rat mAb to murine IFN-γ; also called rIFN-γ; interferon gamma
T1 sequence (looked up): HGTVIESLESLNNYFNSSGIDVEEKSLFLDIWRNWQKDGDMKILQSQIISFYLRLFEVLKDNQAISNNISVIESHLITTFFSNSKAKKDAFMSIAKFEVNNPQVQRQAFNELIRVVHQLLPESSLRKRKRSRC


Legend:
[1] = biological target: T1, murine IFN-γ (recombinant IFN-γ); assay: Octet (BLI); format not stated; diabody (scFv homodimer), not full-length antibody
[2] = biological target: T1, murine IFN-γ (recombinant IFN-γ); assay: Octet (BLI); format not stated; full-length AN18, not diabody

Row | Kd [1] [µM] | Kd [2] [µM] | Molecule
1 | 0.0379 |  | anti-IFN-γ diabody (homodimer of the single chain Fv derived from anti-IFNγ clone AN18, made in CHO cells)
2 |  | 0.0282 | AN-18 (anti-IFNγ, rat IgG1, kappa, eBioscience), full-length (antibody, V domains shown, Bought rat IgG1, kappa monoclonal antibody; also called full-length AN18; anti-mouse IFN-γ mAb clone AN-18) VH: QVQLKESGPGLVQPSQTLSLTCTVSGFSLDSYNVHWVRQPPGKGLEWMGRMKYNGDTSYNSALKSRLRISRDTSKNQVFLKMNSLQTDDTGTYYCTRDWHYGYPSPYFEFWGQGVMVTVSS VL: DVQMTQSPSYLAASPGESVSISCKASKNINTYLAWYQEKPGKTNKLLIYSGSTLQSGTPSRFSGSGSGTDFTLTIRSLEPEDFAVYYCQQHNEYPLTFGSGTKLEVKR
